Assay results taken from paper PMC3810134, “Substrate and Inhibitor Specificity of the Type II p21-Activated Kinase, PAK6” (PLoS ONE, 2013).

Test system: PACSIN1 phosphorylation (Ser343) in HEK293 cells
Experiment: Cell-based assay: phospho-PACSIN1 on co-transfection with PAK6 constructs in HEK293 cells
Conditions: co-transfection with myc-PACSIN1, 24 h
Protocol: HEK293 cells were grown at 37°C with 5% CO2 in Dulbecco’s modified Eagle’s medium (DMEM) supplemented with 10% fetal bovine serum and penicillin/streptomycin. Cells were transfected with pCMV6-myc-PACSIN1 (kindly provided by J. Peterson) and pEGFP-C2, pEGFP-PAK6-WT, pEGFP-PAK6-P52L, pEGFP-PAK6-N (N-terminus, residues 1–382) or pEGFP-PAK6-CAT (catalytic domain, residues 383–674) using polyethylenimine (PEI, Polysciences Inc.). Twenty four hours later, cells were trypsinized, quenched with complete medium, washed with PBS and lysed in buffer containing 20 mM Tris (pH 8.0), 200 mM NaCl, 1 mM EDTA, 1% Triton X-100, Complete Protease Inhibitor Cocktail (Roche), and phosphatase inhibitors (1 mM Na3VO4, 10 mM NaF, 10 mM β-glycerol phosphate) for 10 minutes at 4°C. Samples were resolved by SDS-PAGE and were assessed by immunoblotting using the following antibodies: goat anti-GFP (1∶1000; Rockland), mouse anti-myc (9E10, 1∶1000; Santa Cruz Biotechnology), rabbit anti-phospho-PACSIN1 (1∶2000; gift of J. Peterson), mouse anti-vinculin (1∶10,000; Sigma), anti-goat or anti-rabbit IgG AlexaFluor680 (1∶5000, Invitrogen), anti-mouse IgG IRDye800 (1∶5000, Li-Cor). Bands visualized using a Li-Cor Oddysey imager and were quantified using ImageJ. A ratio of phospho-PACSIN1 to total PACSIN1 was calculated by dividing the total phospho-PACSIN1 signal by the myc signal.

Molecule | phosphorylation of PACSIN1 at Ser343 compared to GFP alone or GFP-PAK6 N-terminus (phospho-PACSIN1 immunoblot) | phosphorylation of PACSIN1 compared to wild-type PAK6 (phospho-PACSIN1/total PACSIN1 (myc), n = 4, Student's t-test)
full-length WT GFP-PAK6: full-length wild-type PAK6 fused to GFP, transfected in HEK293 cells (protein, UniProt Q9NQU5 1-681, looked up, full-length GFP fusion, full-length wild-type PAK6 fused to GFP, transfected in HEK293 cells) MFRKKKKKRPEISAPQNFQHRVHTSFDPKEGKFVGLPPQWQNILDTLRRPKPVVDPSRITRVQLQPMKTVVRGSAMPVDGYISGLLNDIQKLSVISSNTLRGRSPTSRRRAQSLGLLGDEHWATDPDMYLQSPQSERTDPHGLYLSCNGGTPAGHKQMPWPEPQSPRVLPNGLAAKAQSLGPAEFQGASQRCLQLGACLQSSPPGASPPTGTNRHGMKAAKHGSEEARPQSCLVGSATGRPGGEGSPSPKTRESSLKRRLFRSMFLSTAATAPPSSSKPGPPPQSKPNSSFRPPQKDNPPSLVAKAQSLPSDQPVGTFSPLTTSDTSSPQKSLRTAPATGQLPGRSSPAGSPRTWHAQISTSNLYLPQDPTVAKGALAGEDTGVVTHEQFKAALRMVVDQGDPRLLLDSYVKIGEGSTGIVCLAREKHSGRQVAVKMMDLRKQQRRELLFNEVVIMRDYQHFNVVEMYKSYLVGEELWVLMEFLQGGALTDIVSQVRLNEEQIATVCEAVLQALAYLHAQGVIHRDIKSDSILLTLDGRVKLSDFGFCAQISKDVPKRKSLVGTPYWMAPEVISRSLYATEVDIWSLGIMVIEMVDGEPPYFSDSPVQAMKRLRDSPPPKLKNSHKVSPVLRDFLERMLVRDPQERATAQELLDHPFLLQTGLPECLVPLIQLYRKQTSTC | increased phosphorylation of PACSIN1 at Ser343 | 
P52L mutant: full-length GFP-PAK6 with melanoma-associated P52L mutation, transfected in HEK293 cells (protein, UniProt Q9NQU5 1-681, looked up, variant P52L, full-length GFP fusion, full-length GFP-PAK6 with melanoma-associated P52L mutation, transfected in HEK293 cells) MFRKKKKKRPEISAPQNFQHRVHTSFDPKEGKFVGLPPQWQNILDTLRRPKLVVDPSRITRVQLQPMKTVVRGSAMPVDGYISGLLNDIQKLSVISSNTLRGRSPTSRRRAQSLGLLGDEHWATDPDMYLQSPQSERTDPHGLYLSCNGGTPAGHKQMPWPEPQSPRVLPNGLAAKAQSLGPAEFQGASQRCLQLGACLQSSPPGASPPTGTNRHGMKAAKHGSEEARPQSCLVGSATGRPGGEGSPSPKTRESSLKRRLFRSMFLSTAATAPPSSSKPGPPPQSKPNSSFRPPQKDNPPSLVAKAQSLPSDQPVGTFSPLTTSDTSSPQKSLRTAPATGQLPGRSSPAGSPRTWHAQISTSNLYLPQDPTVAKGALAGEDTGVVTHEQFKAALRMVVDQGDPRLLLDSYVKIGEGSTGIVCLAREKHSGRQVAVKMMDLRKQQRRELLFNEVVIMRDYQHFNVVEMYKSYLVGEELWVLMEFLQGGALTDIVSQVRLNEEQIATVCEAVLQALAYLHAQGVIHRDIKSDSILLTLDGRVKLSDFGFCAQISKDVPKRKSLVGTPYWMAPEVISRSLYATEVDIWSLGIMVIEMVDGEPPYFSDSPVQAMKRLRDSPPPKLKNSHKVSPVLRDFLERMLVRDPQERATAQELLDHPFLLQTGLPECLVPLIQLYRKQTSTC |  | significantly increased phosphorylation
